# Reference: patent US7504561B2, “GDC-1 genes conferring herbicide resistance” (Athenix Corporation, priority 2003, dated 2009)
# B1: GDC-1: glyphosate resistance-conferring decarboxylase from fungal strain ATX6394, SEQ ID NO:19; purified as 6×His-tagged protein (protein)
# chain: MASINIRVQNLEQPMDVAEYLFRRLHEIGIRSIHGLPGDYNPLALDYLPSCGLRWVGSVNELNAAYAADGYARVKQMGALITTFGVGELSAINGVAGAFSEHVPVVHIVGCPSTASQRNGMLLHHTLGNGDFNIFANMSAQISCEVAKLTNPAEIATQIDHALRVCFIRSRPVYIMLPTDMVQAKVEGARLKEPIDLSEPPNDPEKEAYVVDVVLKYLRAAKNPVILVDACAIRHRVLDEVHDLIEKTNLPVFVTPMGKGAVNEEHPTYGGVYAGDGSHPPQVKDMVESSDLILTIGALKSDFNTAGFSYRTSQLNTIDLHSDHCIVKYSTYPGVQMRGVLRQVIKQLDASEINAQPAPVVENEVAKNRDNSPVITQAFFWPRVGEFLKKNDIVITETGTANFGIWDTKFPSGVTALSQVLWGSIGWSVGACQGAVLAAADDNSDRRTILFVGDGSFQLTAQELSTMIRLKLKPIIFVICNDGFTIERFIHGMEAEYNDIANWDFKALVDVFGGSKTAKKFAVKTKDELDSLLTDPTFNAAECLQFVELYMPKEDAPRALIMTAEASARNNAKTE
# modifications: 6xHis tag; Fungal isolate from soil sample
# notes: purified as 6×His-tagged protein
# Assay: Standard pyruvate decarboxylase assay (coupled reaction with alcohol dehydrogenase, absorbance at 340 nm)
# Assay type: biochemical
# Conditions: 100 ng of GDC-1 protein
# Procedure: 100 ng of GDC-1 protein was tested for activity in a standard pyruvate decarboxylase assay (Gounaris et al. (1971) J. of Biol. Chem. 246:1302-1309). This assay is a coupled reaction, wherein the first step the pyruvate decarboxylase (PDC) converts pyruvate to acetaldehyde and CO2. The acetaldehyde produced in this reaction is a substrate for alcohol dehydrogenase, which converts acetaldehyde and β-NADH to ethanol and β-NAD. Thus, PDC activity is detected by virtue of utilization of β-NADH as decrease in absorbance at 340 nm in a spectrophotometer. GDC-1 as well as a control enzyme (pyruvate decarboxylase, Sigma) were tested in this assay.
molecule,measurement,value
B1,Pyruvate decarboxylase activity,showed activity as a pyruvate decarboxylase
